Experimental data as given in patent US12098206B2, “PDGF receptor antibody and use thereof” (Seoul National University R&DB Foundation, priority 2018, dated 2024).
Read-outs that look alike come from different tables or passages of the source.

B1: PRb-CC02: anti-mPDGFR-β scFv clone (VH SEQ ID NO 23, VL SEQ ID NO 24), tested as scFv-Cκ-anti-cotinine scFv bispecific antibody (antibody, V domains shown)
VH: AVTLDESGGGLQTPGGALSLVCKASGFTFSSYGMFWVRQAPGKGLEWVAGIDTGSGTNYGSAVKGRATISRDNGQSTVRLQLNNLRAEDTGTYFCTRGYAGTIDAWGHGTEVIVSSTS
VL: LTQPSSVSANPGETVKITCSGGGGSYGWYQQKSPGSAPVTVIYYNDKRPSDIPSRFSGSKSGSTGTLTITGVQAEDEAVYFCGSYNSSDSLFGAGTTLTVL
modifications: VH of PRb-CC02; VL of PRb-CC02
B2: PRb-CC03: anti-mPDGFR-β scFv clone (VH SEQ ID NO 31, VL SEQ ID NO 32), tested as scFv-Cκ-anti-cotinine scFv bispecific antibody (antibody, V domains shown)
VH: AVTLDESGGGLQTPGGTLSLVCKASGFTFSSYAMGWVRQAPGKGLEWVAGIDTAGGTAYGPAVKGRATISRDNGQSTVRLQLNNLRAEDTATYYCTRSSYIDTWGHGTEVIVSSTS
VL: LTQPSSVSANPGETVKITCSGGTYNYGWYQQKSPGSAPVTVIYWNDKRPSDIPSRFSGSKSGSTGTLTITGVQAEDEAVYYCGSSDSSGLIFGAGTTLTVL
modifications: VH of PRb-CC03; VL of PRb-CC03
B3: PRb-CC01: anti-mPDGFR-β scFv clone (VH SEQ ID NO 15, VL SEQ ID NO 16), tested as scFv-Cκ-anti-cotinine scFv bispecific antibody (antibody, V domains shown)
VH: AVTLDESGGGLQTPGGALSLVCKGSGFTFSSYNMGWVRQAPGKGLEFVAGISAADNSTAYGAAVDGRATISRDNGQSTVRLQLNNLRAEDTATYFCIRGGGSIDAWGHGTEVIVSS
VL: LTQPSSVSANLGGTVKITCSGGGSYYGWYQQKSPGSAPVTLIYYNDKRPSDIPSRFSGSKSGSTGTLTITGVQAEDEAVYFCGAWDNSAGYAGFGAGTTLTVL
modifications: VH of PRb-CC01; VL of PRb-CC01

What was measured:
[1] = rats; cited from earlier work
[2] = persons treated with up to 1,800 mg for 4 consecutive days; cited from earlier work
NIH3T3 cells [3] = assay: cells; format: cell-based, mouse; conditions: for IC50: Mus musculus, NIH3T3, 72 h, NIH3T3 cells, 72 hours; for toxicity with the addition of mPDGF-BB: complex with cot-duo or cot-duo-cot; for toxicity with the addition of mPDGF-BB / toxicity compared to control anti-HER2 x cotinine scFv-Cκ-scFv: NIH3T3, FIG. 5; for toxicity compared to control anti-HER2 x cotinine scFv-Cκ-scFv: complex with cotinine-duocarmycin, with or without mPDGF-BB
Method: NIH3T3 cells were added to 50 μL of DMEM supplemented with 10% FBS and 1% penicillin/streptomycin, placed in a 96-well plate (CLS3595, Corning) and incubated overnight in 5% CO2 at 37° C. incubator. In each well containing 50 μL of cells, 50 μL of 50 anti-PDGFR-β x cotinine scFv-Cκ-scFv fusion protein (25.6 pM-2 μM) complexed with cot-duo or cot-duo-cot obtained in Experimental Example 10 was added and incubated for 72 hours in 5% CO2 at 37° C. incubator. To test mPDGF-BB on the toxic effect of the bispecific antibody of scFv-Cκ-scFv and the cotinine-duocarmycin complex, mPDGF-BB (2 nM) was added together with 50 μL of the bispecific antibody scFv-Cκ-scFv and the cotinine-duocarmycin complex. The mixed complexes were added to 50 μL of NIH3T3 cells.
The bispecific antibody of anti-HER2 x cotinine scFv-Cκ-scFv was used as a control. After 72 hours of incubation in the cells, 100 μL of Cell Titer-Glo reagents (Promega Corp., Madison, WI, USA) were added to all wells according to the manufacturer's instructions, and luminescence was measured in a luminometer (PerkinElmer, Waltham, MA, USA). The experiment was repeated 3 times. Relative viability was calculated with the following formula: [% viability=(luminescence of experimental well-luminescence of background well)/(luminescence of control-luminescence of background well)×100]. The wells containing only new medium were used as background wells.
To evaluate the toxicity of the complex of anti-mPDGFR-B x cotinine scFv-Cκ-scFv bispecific antibodies and cotinine duocarmycin (cot-duo, cot-duo-cot), the complexes were added to NIH3T3 cells in the presence/absence of mPDGF-BB. The ATP of the cells was measured for relative cell viability. The toxicity of the bispecific antibody of scFv-Cκ-scFv fusion antibody was shown by IC50 in Table 6 and FIG. 5.
It was carried out in the same manner as in Example 7, except that the bispecific antibody related with the anti-mPDGFR-β antibody and the bispecific antibody related with the anti-hPDGFR-β antibody prepared in Example 10 were used. FIG. 20a to FIG. 20b are graphs showing the difference in cytotoxic activity of PRb-CN01 and PRb-CN32 bispecific antibodies and cotinine-duocarmycin complexes in the cells expressing PDGFR-β. In FIG. 20b, an experiment was repeated in the presence of mPDGF-BB.

[4] = mice; conventional studies; cited from earlier work
PDGFR-β = PDGFR-β (Homo sapiens, UniProt P09619); conditions: cited from earlier work
Sequence of PDGFR-β (P09619 33-1106): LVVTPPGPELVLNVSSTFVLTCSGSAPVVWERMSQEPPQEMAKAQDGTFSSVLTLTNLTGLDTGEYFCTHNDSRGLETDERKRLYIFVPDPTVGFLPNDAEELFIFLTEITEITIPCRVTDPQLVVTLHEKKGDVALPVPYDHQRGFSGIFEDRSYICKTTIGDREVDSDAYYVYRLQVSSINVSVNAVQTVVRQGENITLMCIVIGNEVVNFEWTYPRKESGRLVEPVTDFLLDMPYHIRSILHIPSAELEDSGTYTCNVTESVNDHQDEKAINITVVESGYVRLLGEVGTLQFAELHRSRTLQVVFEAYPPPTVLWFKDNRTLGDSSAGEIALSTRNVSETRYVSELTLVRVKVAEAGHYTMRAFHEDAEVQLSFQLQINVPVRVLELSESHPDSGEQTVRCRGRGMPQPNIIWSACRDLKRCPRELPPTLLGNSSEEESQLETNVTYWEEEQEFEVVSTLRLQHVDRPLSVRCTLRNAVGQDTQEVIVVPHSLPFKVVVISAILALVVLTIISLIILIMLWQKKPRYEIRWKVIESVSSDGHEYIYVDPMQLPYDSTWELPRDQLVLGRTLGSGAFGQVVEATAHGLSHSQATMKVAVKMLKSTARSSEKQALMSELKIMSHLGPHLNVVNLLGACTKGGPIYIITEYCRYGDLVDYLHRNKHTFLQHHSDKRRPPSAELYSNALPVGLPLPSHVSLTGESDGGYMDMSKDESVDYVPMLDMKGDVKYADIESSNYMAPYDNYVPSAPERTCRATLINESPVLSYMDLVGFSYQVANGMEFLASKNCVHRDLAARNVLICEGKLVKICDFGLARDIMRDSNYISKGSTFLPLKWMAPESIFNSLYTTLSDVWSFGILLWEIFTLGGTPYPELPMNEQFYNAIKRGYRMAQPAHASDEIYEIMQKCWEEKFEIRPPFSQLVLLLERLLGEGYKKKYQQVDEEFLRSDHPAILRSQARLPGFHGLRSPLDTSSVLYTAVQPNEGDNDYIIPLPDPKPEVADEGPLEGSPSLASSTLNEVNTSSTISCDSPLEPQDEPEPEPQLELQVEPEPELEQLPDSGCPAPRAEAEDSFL

[5] = combination of Olaratumab and doxorubicin compared to doxorubicin alone; cited from earlier work
mPDGFR-β and cotinine = molecular target: T1, mPDGFR-β and cotinine (Mus musculus, UniProt P05622); assay: Enzyme immunoassay, simultaneous binding to cotinine and mPDGFR-β; conditions: cotinine-BSA coated wells, then mPDGFR-β-Fc chimera; FIG. 3d
T1 construct: mPDGFR-β
T1 sequence (P05622 32-530): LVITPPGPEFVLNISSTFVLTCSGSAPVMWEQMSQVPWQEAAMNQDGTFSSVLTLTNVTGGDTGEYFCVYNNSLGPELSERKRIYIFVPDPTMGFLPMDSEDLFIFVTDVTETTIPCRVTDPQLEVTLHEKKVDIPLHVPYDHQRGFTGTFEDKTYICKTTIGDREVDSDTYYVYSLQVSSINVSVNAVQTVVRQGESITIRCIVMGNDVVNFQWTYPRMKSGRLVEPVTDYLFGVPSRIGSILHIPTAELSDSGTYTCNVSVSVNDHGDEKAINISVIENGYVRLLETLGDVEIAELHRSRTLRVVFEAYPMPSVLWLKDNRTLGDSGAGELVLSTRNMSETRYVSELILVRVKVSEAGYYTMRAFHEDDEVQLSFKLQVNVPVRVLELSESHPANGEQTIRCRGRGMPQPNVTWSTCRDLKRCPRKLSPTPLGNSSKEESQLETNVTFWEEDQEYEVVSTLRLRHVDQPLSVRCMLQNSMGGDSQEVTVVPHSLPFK
Method: In order to confirm whether the bispecific antibody has simultaneous binding ability to both cotinine and mPDGFR-β, anti-mPDGFR-β x cotinine scFv-Cκ-scFv fusion protein was reacted in wells coated with cotinine-BSA. Washing was performed for each process, and mPDGFR-β-Fc chimeric protein and HRP-anti human Fc antibody were sequentially incubated.

mPDGFR-β = molecular target: T2, mPDGFR-β (Mus musculus, UniProt P05622); assay: Competition enzyme immunoassay with mPDGF-BB; format: binding; conditions: mPDGF-BB 100 nM; FIG. 4a
T2 construct: mPDGFR-β
T2 sequence (P05622 32-530): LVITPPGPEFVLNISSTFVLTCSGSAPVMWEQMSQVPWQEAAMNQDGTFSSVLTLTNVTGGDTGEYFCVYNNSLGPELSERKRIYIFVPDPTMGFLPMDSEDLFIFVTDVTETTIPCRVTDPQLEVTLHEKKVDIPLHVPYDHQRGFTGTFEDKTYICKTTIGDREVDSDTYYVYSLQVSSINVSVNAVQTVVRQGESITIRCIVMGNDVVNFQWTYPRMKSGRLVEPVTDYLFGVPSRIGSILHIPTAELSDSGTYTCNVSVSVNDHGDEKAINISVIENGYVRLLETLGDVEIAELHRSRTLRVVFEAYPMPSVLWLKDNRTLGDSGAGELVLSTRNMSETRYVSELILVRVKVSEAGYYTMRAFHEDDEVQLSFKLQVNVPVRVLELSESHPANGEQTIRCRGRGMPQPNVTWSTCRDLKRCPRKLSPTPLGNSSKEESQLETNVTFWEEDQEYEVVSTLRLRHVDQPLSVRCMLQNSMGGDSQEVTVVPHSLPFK
Method: In order to confirm the competition between the bispecific antibody according to the present invention and mPDGF-BB, the microtiter plate was coated with mPDGFR-β-Fc chimera as mentioned above and then blocked. The microtiter plate was treated with various concentrations of the bispecific antibody (0.06 nM-1 μM) with or without addition of mPDGF-BB (100 nM), and then incubated at 37° C. for 2 hours. The washing, incubation, and detection were performed in the same manner as the enzyme immunoassay described above.
A competition enzyme immunoassay was developed to examine the effect of mPDGF-BB on the binding ability of anti-mPDGFR-β x cotinine scFv-Cκ-scFv fusion protein. The serially diluted bispecific antibodies (anti-mPDGFR-β scFv-Cκ-cotinine scFv) were incubated on wells coated with mPDGFR-β-Fc chimeric fusion protein with or without mPDGF-BB. HRP-anti-human Cκ antibody was incubated and then TMB was added. […] However, the binding ability of PRb-CN01 was not inhibited, so it confirmed that PRb-CN01 binds to mPDGFR-β in a noncompetitive manner to mPDGF-BB.

NIH3T3 cells [6] = assay: Internalization analysis by confocal microscopy in NIH3T3 cells; format: cell-based, mouse; conditions: 10 μg/mL, 37° C., 30 minutes, FIG. 4c
Method: The bispecific antibody of scFv-Cκ-scFv fusion protein was analyzed with a confocal microscope for visualizing internalization. NIH3T3 cells were treated with the bispecific antibody of scFv-Cκ-scFv (10 μg/mL) diluted in DMEM containing 10% FBS, and internalized at 37° C. for 30 minutes. After washing the cells 3 times with cold PBS, acidic buffer (0.2 M acetic acid, 0.5 M sodium chloride) was treated at room temperature for 5 minutes to remove the antibody bound to the cell surface. Cells were washed twice with cold PBS, fixed with 4% paraformaldehyde for 10 minutes, and then subjected to immunofluorescence staining as previously described [J. M. Lim et al., J. Cell. Biol. 210 (2015) 23].
Briefly, to block antibodies having non-specific reaction, cells were incubated in PBS containing 5% horse serum and 0.1% Triton X-100 for 30 minutes, and 2 μg/mL FITC-anti human Cκ antibody (TB28-2, BD Biosciences) was added at room temperature for 30 minutes. To image the initial endosomes, the cells were washed 3 times with PBS, incubated with PBS containing 5% horse serum and 0.1% Triton X-100 for 30 minutes, and then incubated with ati-RabS antibody diluted to 1:200 (C8B1, Cell Signaling Technology, Danvers, MA, USA). Alexa Fluor 546 goat anti-rabbit IgG (A-11035, Invitrogen) was sequentially treated. Cells were treated with 0.2 μg/mL DAPI to detect DNA. Confocal microscopy images were obtained using a Zeiss LSM 880 microscope, and images were analyzed with Zen software (Carl Zeiss, Thornwood, NY, USA).
To measure the cellular internalization of the bispecific antibody of scFv-Cκ-scFv, anti-mPDGFR-β x cotinine scFv-Cκ-scFv fusion protein was incubated in NIH3T3 cells, and then treated with FITC-anti-human Cκ antibody and endosome-specific antibody. It was imaged using a confocal microscope. […] When the images were merged, the present inventors confirmed that the fluorescence of the three antibody clones and the endosome-specific antibody were co-localized.

| Molecule | toxicity with the addition of mPDGF-BB (NIH3T3 cells [3]) | toxicity compared to control anti-HER2 x cotinine scFv-Cκ-scFv (NIH3T3 cells [3]) | simultaneous binding to mPDGFR-β and cotinine (mPDGFR-β and cotinine) | binding ability to mPDGFR-β in the presence of mPDGF-BB (mPDGFR-β) | cellular internalization (NIH3T3 cells [6]) | further results |
| --- | --- | --- | --- | --- | --- | --- |
| CN1C(=O)CC[C@H]1c1cccnc1 [Cotinine, cotinine] |  |  |  |  |  | LD50 [1]: 4000 ± 100 mg/kg; adverse side effects [2]: no adverse side effects were induced |
| COC(=O)c1cc2c([nH]1)C(=O)C=C1N(C(=O)c3cc4cc(OC)c(OC)c(OC)c4[nH]3)C[C@H]3C[C@]123 [Free duocarmycin, duocarmycin, reference compound] |  |  |  |  |  | IC50 (NIH3T3 cells [3]; read-out: Cot-duo IC50 (nM), complex with cot-duo (DAR4), or conjugate/free drug alone, with mPDGF-BB (2 nM)): 23.8 nM; IC50 (NIH3T3 cells [3]; read-out: Cot-duo IC50 (nM), complex with cot-duo (DAR4), or conjugate/free drug alone, without mPDGF-BB): 9.7 nM; IC50 (NIH3T3 cells [3]; read-out: Cot-duo-cot IC50 (nM), complex with cot-duo-cot (DAR2), or conjugate/free drug alone, with mPDGF-BB (2 nM)): 60.3 nM; IC50 (NIH3T3 cells [3]; read-out: Cot-duo-cot IC50 (nM), complex with cot-duo-cot (DAR2), or conjugate/free drug alone, without mPDGF-BB): 35.7 nM; weight loss [4]: induced significantly weight loss |
| Olaratumab: recombinant human IgG1 antibody against PDGFR-α |  |  |  |  |  | cross-reactivity with PDGFR-β (PDGFR-β): dose not cross-react with PDGFR-β; overall mean survival [5]: significantly improved overall mean survival compared to doxorubicin alone |
| B1 | decreased with the addition of mPDGF-BB | showed toxicity compared to the control antibody and the non-internalizing antibody (PRb-CC01), but did not show statistical significance | simultaneously bound to mPDGFR-β and cotinine | inhibited in the presence of mPDGF-BB | Intracellular fluorescence was detected |  |
| B2 | decreased with the addition of mPDGF-BB | showed toxicity compared to the control antibody and the non-internalizing antibody (PRb-CC01), but did not show statistical significance | simultaneously bound to mPDGFR-β and cotinine | inhibited in the presence of mPDGF-BB | Intracellular fluorescence was detected |  |
| B3 | decreased with the addition of mPDGF-BB |  | simultaneously bound to mPDGFR-β and cotinine | inhibited in the presence of mPDGF-BB | not internalized |  |
